Assay: label from the status in PepcDB records
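Note: failed if final PepcDB status was selected cloned or expressed and not failed if soluble or beyond.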

Sequence | protein production
MQKGNIRIAIDKGGTFTDCVGNIGTGKQEHDTVIKLLSVDPKNYPDAPLEGIRRLLEVLEHKTIPRGIPLDISNVRSLRMGTTLATNCALERNGERCAFITTKGFKDSLLIGDQTRPDIFNLNIKKVVPLYDTVVEIDERVTLEDFSEDPYFTKSSPNEQEGILEGNSGEMVRVIKKPDESSVRSILKVLYASGIKSIAIAFLHSYTFPDHERIVGNIAREIGFSHVSLSSEVSPMIKFLPRAHSSVADAYLTPVIKKYLNSISAGLSHAEDTHIQFMQSDGGLVDGGKFSGLKSILSGPAGGVIGYSSTCYDKNNNIPLIGFDMGGTSTDVSRYGDGRLEHVFETVTAGIIIQSPQLDIHTVAAGGSSILSWKNGLFRVGPDSAAADPGPAAYRKGGPLTITDANLFLGRLVPEFFPKIFGPNEDESLDLETTTLKFRELTDVINKDLNSNLTMEEVAYGFIKVANECMARPVRAITEAKGHVVSQHRLVSFGGAGGQHAIAVADSLGIDTVLIHRYSSILSAYGIFLADVIEENQEPCSFILGEPETILKVKKRFLELSKNSIKNLLSQSFSREDIVLERYLNLRYEGTETSLMILQKYDDQWNFREWFSEAHKKEFGFSFDDKRIIIDDIRIRAIGKSGVRKEKTVDEQLIEISHFKKADVSKDASFTQKAYFDNKWVDTAVFKIDDLPAGTIIEGPAILADGTQTNIILPNSQATILNSHIFIKINQKAAKTLSKSGYELDIDPILLSIFSHRFMDIALQMGTQLRKTSVSTNVKERLDFSCALFDSKGNLVANAPHVPVHLGSMSTCISAQAKLWEGKLKPGDVLITNHPDIGGTHLPDITVITPSFSSTGELIFYVASRAHHADIGGILPGSVPPNSKELYEEGTAIYSELVVKEGIFQEELIYKLFVEDPGKYPGCSGSRRFSDNISDLKAQVAANTKGIQLIGSLTKEYDLATILKYMAAIQTNASESIKKMLAKMVEHFGTTKFSGEDRLDDGSLIKLQVIIRPEKEEYIFNFDGTSPQVYGNLNAPEAITNSAILYCLRCLVGEDIPLNQGCLKPLTIKIPAGSLLSPRSGAAVVGGNVLTSQRVTDVILKTFNVMADSQGDCNNFTFGTGGNSGNKTDKQIKGFGYYETICGGSGAGADSWRGSGWNGSDAVHTNMTNTRMTDTEVFERRYPVLLKEFSIRRGSGGKGKYTGGNGVVRDVQFRKAVTASILSERRVIGPHGIKGGQDGSRGENLWVRHSTGALINVGGKNTIYAQPGDRFIIKTPGGGGFGQYKD | failed
MQKIIDDSLELAKKLQDSISNHLSDQEKAFHSKMQKLLNNPENKVMLIELMDRSFRCLDNKARFEMIEHVLDKYKSREIFSPFEKVLLMGFLSFGKMLPDMSVPFFVNKIRSDTKAMVLDQEESQLKERILKRKNEKIILNVNFIGEEVLGEEEANARFEKYSQALKSNYIQYISIKITTIFSQINILDFEYSKKEIVKRLDALYALALEEEKKQGMPKFINLDMEEFRDLELTVESFMESIAKFDLNAGIVLQAYIPDSYEYLKKLHAFSKERVLKGLKPIKIRFVKGANMESEETIASVKDWALPTFSNKQDTDSNYNKMLDFVLEGDNYKYIHIGAASHNIFEIAYVYTRIHAINDPVVLEHFSFEMLEGMSLQASQELKEMHKLILYAPVCDEAHFNNAIAYLVRRLDENTSSDNFMKAFFNLKVGTSEWKDQEQRFLNSLKGIATLDNATHRTQDRNAKQSGHTTYPNHSFKNESDTDFILKANREWAKKVREKMRNAPILELYPEMDGRFEDPNLTPLEVFDRIHHKKIASVHLADKEAILKALEVAKSDKSRFSQKSFTEIHALMSQTAQLFRERRGDLIGISALEVGKTFAETDAEVSEAIDFLEFYPYSLRVLQEQNTKTQFTPKGVGVVIAPWNFPVGISVGTIAAPLATGNRVIYKPSSLSSVTGYKLCECFWDAGVPRDALIYLPSKGSDISEHLLRDESIQFAILTGGEDTAYKMLKANPTLALSAETGGKNATIVSKMADRDQAIKNVIHSAFSNSGQKCSATSLLVLEKEVYEDENFKKTLIDATLSLSVGDPFDFKNKIGALADKPNEKVIKAIDELKSYENYEIPVSFVNDNPYLMKPSIKYGTKKGDFTHQTELFTPILSVMEAKDLDEAIEIANSTGYGLTSALESLDEREWEYYLERIEAGNIYINKPTTGAIVLRQPFGGVKKSAVGFGRKVGIFNYITQFVNICQEEEDENALKNPLSEALENLTQKGYDEHTHELKRAIFMAKSYAYHYKHEFSQTKDYVKIRGEDNLFSYTKVKSVGYRITEKDTLSDMLGVALACLISQIPLTLSIENERTNKDLTFFLECLKALQASAPIVYESLQKFSEKLNTFNRVRYLKSDLDLLHEQASALGMVLATAKPCLNGRFELLYYHLERSVSISYHRYGNLGSRVLRQPTCHKSCCAEK | failed
MQKNFSVVKKYVNLILDIVLGILGVFLLVFMASYLVDLATYLMKPMTPDNFSVIMQEIISFFMLFEFIMMILRYIQEGHHIPIRYLILICLTAILRQLMVAHGDGLQTLLLSLSILLLVVVLFILGLNGSKFYTLGKAKVEEDHEQDFHH | failed
MQKNLDSLLENLRAEIDALDNELSDLLDKRLEIALKIALIKQESPIYCPKREQEILKRLSQRDFKHLNGEILTGFYTEVFKISRKFQENALKELKK | failed
MQKPAVTVMVKAARLAGNVLLRGINKLDALNVVQKGRMDYASEVDADAEKVIIKELKRGYPEYAVFGEEGGVQGGKSGRYTWVIDPLDGTSNYLRGFPHYCVSIALVENGEPTDAVIFDPLRNELFTASRGAGAVLNDRRIRIAERKDLEGAMVHTGFPPRERARASAQLKCVDALLVQAEDVRRTGSAALDLAYVACGRADAYFEAGVKAWDIAAGVLLVREAGGRVCDYKGATPPRMDNMGPETQQIVAGNIKISDALQKVIVNTGYAREFDAKF | failed
MQKPHLLITSAGRRAKLVEYFVKEFKTGRVSTADCSPLASALYMADQHYIVPKIDEVEYIDHLLTLCQDEGVTALLTLIDPELGLLAQATERFQAIGVTVIVSPYAACELCFDKYTMYEYCLRQGIAHARTYATMASFEEALAAGEVQLPVFVKPRNGSASIEVRRVETVEEVEQLFSKNTDLIVQELLVGQELGVDAYVDLISGKVTSIFIKEKLTMRAGETDKSRSVLRDDVFELVEHVLDGSGLVGPLDFDLFDVAGTLYLSEINPRFGGGYPHAYECGVNFPAQLYRNLMHEINVPQIGQYLDDIYMLKHDTVTLISAAELQKIKR | not failed
MQKVEGIIFDMDGVLFDSERISLEFWMETFEKYGYTMTKEIYTSVMGRNRKGIIEGLTDIYDSSVPIIDLYDEKTKNMIEFMERKGAPIKLGVNELISFLKENGYKMAVATSTKRERAVKRLAKANLKDYFDAIVCGDDVVNSKPNPEIFLKAAKKINVNPKNCIVIEDSPMGVEAAYNGGIRCINVPDLKEPDEQIKSQSHKILENLLEVREYLKSLNSKECHNL | failed
MQLAINKIYRRIFISMDTGVSDHGIEIIGVDPIPGTSRIMGPWKMTVFWSMASASALTPLIGYLLYPLGLIDMLIAISIAFLIGFVPVGIFSEMGRTIPVPAMIISRKTLGYASSSVMSLIFTFVNLGWFGLNDITGGLILASVTSSSPIIWISFMAIVQIMLVLFGAKYLEKFYRYTAILLVFSYGILTYLLFRVYRPDMYAVLHPSTAVNWGSAIGLVLAFSILAWAYKVSTISRFARKREAGEPALERSGFFMAPSIGIIVPVYVMGSLGLISEAAAENWNLAAVRFSGLGSIGGAVAIIASIGASLAIIHTNSMNLYPATADLLSAIEGLFNKRLRKFAQPISTAILGTLGAVLAYAGILNYASGFLNLSGSIIFPFTFVLIADWFMMNRHSANSADFYSIPKNGLGNVNLAGISGLIVGVILNLIHINLLNALFLYVPQDIFGSLAGTAVFILVLKAVQKKQAAQEENRSDTVAE | failed
MQLEHILRSYARYAPVYDHTFGWLLNFRGRSLAAHLTNRRPGRILEVGVGTGISLPFYRKEHQVHGIDISPHMLERARRRVHSKNLDHVVRLEIMDAREMAFPDDYFDAVVAAYVMSVVPEPQRVLREIERVCKAGGDVIIVNHFAADKKGTRRHFEALLSPLSHKLGWRPDMPIDEILAHTSLHEVRRQTLPPMGLFTLLHLKKASPDFADPARP | failed
MQLESLYQFLYSVVMSYLVSLKYVSFVLISVILVFRKIIRTVKGGRFRRYSIFIPPILYILFSIAVSYGTSLLGIVLSLIAFVFGIYISFHTTRSIVFFSKNNILYYKRPGWVVAIWSLAFLTRLALILFFPSFNGDLFTVLLFLASGLIIGESFWIVRKNREILSTVRMPKIHL | failed
MQLIGDTPITYRRYSMSSSQNALVLIARILLSFIFIYSGFGKLTDPAGTAGMIAGAGMPAATALAYLAGLFELVAGLAILAGFQTKIAAWALAVFCVFTGLVFHSGTVAVPGWPEPALGWINTLNGIMMMKNITLAGAYILLATFGAGAYSVDAKRGFVAARA | failed
MQLQTEVKKQPSKRKFKMPDAYVLLFFIALLCAIATYFVPAGEFKRVTNRTVTTTIPGSYHSVPQSPVGFVSFFTAIEKGMTLAAPIIFLILFTGGAIAILEKTGALDGLIYHVINKFRNQQFLFICIVAALFSILGTTGIIVNSVIGFIPIGIIVARTLKWDAIVGVAIIYLGTYAGFNATILSPSPLGISQKIAELPMFSGIGLRTAIYLSFLLATILYINWYVKRLKKSNKGSILGDNWFPSNALSSGKEAQKTEVPWTIRHKLILLVSALSLITFLIGAFRLHWTDAEMTATFIFIAITAGIIGGMKANDIASTFLAGCQNLIYGALIVGMARCISVILEQGKLLDTIVNQLAQSLEGQSPVFGVIGMYVSSAALHFLISSGTGESVIFIPILAPLADFMHITRQVTVQAVMLGEGVVNCLNPTSGVLMGVLAASGISYGKWIRFMAPLAFIWFIIGLIFLIVGVNIEWGPY | failed
MQLTSENYYSQEANKEYMSVSGYKDFAGTYGKMPCEFYGMEKLNGRWEDEKSTALLVGSYVDSYFEGSLDQFKKDNPEIFTQKGELKANFKQAEEIIARIERDEYFMKYMSGQKQVIMTGELFGAKWKIKMDSYIPGVAIVDLKVMASITDLKWVKDIGYLDFVRYWGYDIQGAVYQEIVRQNTGEKLPFFIAGATKQTEPDIRIIHVTDNYLQEALHMVEMNMPRILRVKNGEVEPDRCELCDCCRHNRVLKKPISIMDLTAGI | not failed
MQMSEKFKQIRARLRLPVLVAPMLRISGPALVAASCSNGVIGSFPTVNARTPDQLDRWIDEIKQAVSAAGAYDAPYCANILARSDPDKLQADLKILIKHKVEIVLVSTGAPEKYVKPLQDIGCFVIADVASIRHARKALQQGVDGLALLTAGAGGQTGWANGFAFVRAIRDFYDGPLLLAGGVSDGQALWAARTLGCDLGLMGTRFIGTQECDASDGYKAMLVDSSIDDVVLTRGISGIDANFLRPSIIACGLDPQELVAPVSPERAREMFSSYADGMRGPKRWVDLWSAGHTVSGVKVVQSVSEVVDQLAVEYTRAQRATRAPLADADDPAI | failed
MQNIAVHEASTLMRYISNAIGSIRDPQELFRTVTDKLRLVFEFDSAFIITLDRDRRFINVVFEMVRFDLPDTIQRKKRPVAGSWIESHLGDEGVSVVAIEGEMDRYPADFPVPRMLYDLGMRQVVLSPLRSGGKVIGFLNFVSREQKQWKESDKELLSTLSSPVAVALSSALAYEELRQREA | failed
MQNNKTKLLDEVATYYAEKLAEHGDTPRGVDWNGEESQTIRFEQLCKVIDPKKMPGFSLNDLGCGYGALLDYLRDKYAACIYLGVDVSHEMIKAARQRHTAANQARFITSTEPDQVADYGVASGIFNVRLERTDAEWFDYLLGTLDVLNRTSSLGFAFNCLTSYSDEDKKRDYLYYADPCRLFDLCKRRYSRQVALLHDYGLYEFTILIRKALEHHHHHH | failed
MQPDTQEIVVDEVFPHAPETIWKTLTTAELMGRWLMMPAGFEPIEGKRFTYQTTPAGDWDGTIHCQVLEVKPNERLTYAWKGGHAGNTGYGSPLDTVVTFILSRAGNGTRLRLVHSGFVLPKNETAYRKMGEGWKKVVKNIGALAGGEDLEHHHHHH | failed
MQPIELAELLTSQAAVLTSLVVIGLILCFIGYKIFRVYSAVIGLFIGQLVGIYITINYYENALIVILASAIVGALLFALIDELGLIVTGAAFGYFVGVYLLPEYQVYAFVLAALFALINLFIEKPLTVLITSVIGASAIALAVHMGITGTHIYDILNDPKKVFDAIFSNAYFDLLWFTLVLTGIITQYVTYKEEREEEE | failed

Source: a protein production outcome set (Wang et al. 2014)
